This is an account of results in paper PMC11548754, “DRN facilitates WUS transcriptional regulatory activity by chromatin remodeling to regulate shoot stem cell homeostasis in Arabidopsis”.

The target of data set [1] is GST-WUS (WUSCHEL);8His-MBP-DRN (DORNROSCHEN) (Arabidopsis thaliana;Arabidopsis …, UniProt Q9SB92;Q9SAD4 1-292;1-328, |). The data set can be described thus: EMSA; super-shift on adding DRN to WUS; EMSA kit (Thermo 20148), biotin-labeled probe; buffer, salt, pH and temperature not stated. The settings on record: protein: recombinant;recombinant; tags: N-terminal GST (pGEX6p-1);N-terminal 8His-MBP (modified pET28b); label: biotin; blunt.

In data set [2] the target is T1, GST-WUS (WUSCHEL) (Arabidopsis thaliana, UniProt Q9SB92 1-292).
T1 sequence: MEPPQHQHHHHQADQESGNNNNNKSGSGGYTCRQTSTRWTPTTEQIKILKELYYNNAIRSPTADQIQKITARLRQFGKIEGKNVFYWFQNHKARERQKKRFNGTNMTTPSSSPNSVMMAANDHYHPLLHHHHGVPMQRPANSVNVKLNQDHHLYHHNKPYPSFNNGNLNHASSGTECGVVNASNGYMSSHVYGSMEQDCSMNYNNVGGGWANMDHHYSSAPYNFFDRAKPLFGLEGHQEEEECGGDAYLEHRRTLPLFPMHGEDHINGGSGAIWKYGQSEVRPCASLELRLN
The data set can be described thus: EMSA; EMSA kit (Thermo 20148), biotin-labeled probe; buffer, salt, pH and temperature not stated. The note with it: protein: recombinant; tags: N-terminal GST (pGEX6p-1); chain copies: 2; label: biotin; blunt.

Chain of GST-WUS (WUSCHEL);8His-MBP-DRN (DORNROSCHEN) (Q9SAD4 whole entry, one chain of several): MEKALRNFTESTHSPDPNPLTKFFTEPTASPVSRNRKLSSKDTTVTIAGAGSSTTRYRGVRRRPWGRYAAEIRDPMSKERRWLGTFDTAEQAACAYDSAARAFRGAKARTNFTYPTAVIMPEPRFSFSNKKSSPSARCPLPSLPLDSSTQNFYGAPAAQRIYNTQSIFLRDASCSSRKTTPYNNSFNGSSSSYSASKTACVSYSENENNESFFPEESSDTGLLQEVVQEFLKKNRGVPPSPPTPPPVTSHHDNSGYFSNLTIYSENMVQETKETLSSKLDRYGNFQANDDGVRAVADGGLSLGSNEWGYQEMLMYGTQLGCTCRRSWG

B1: CLV3 promoter probe (-1090 to -1064) (dsDNA)
DNA 1: GGCTCATATAATCCATTCAATTTATG
DNA 2: CATAAATTGAATGGATTATATGAGCC
As to B1, the binding result in data set [1] and in data set [2] was “binds” throughout.
